Measurements from paper doi:10.1101/2024.07.21.604498.

Target: hERG channel with a deleted PAS domain fused to Citrine (S620T) (human) (UniProt Q12809)
Experiment: FRET or BRET

hERG PAS domain fused to CFP (from UniProt Q12809 1-135) (domain or fragment)
Ratio A (F436/F500): 0.37
Ratio A-Ratio A0 (proportional to FRET efficiency): 0.21
